Measured values published in the supplement of paper PMC10724198.
± gives the standard deviation of the averaged measurements.

How the values were obtained:
Saccharomyces cerevisiae [1] = assay: protein stability index of tFT-peptide fusion (C-terminal peptide) (PSI (0-1 scale)); higher = more stable (slower turnover)
Description: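 MPS profiling in S. cerevisiae of the tFT-X12 degron library: putative degron peptides plus stable controls, 12 aa, fused to the C-terminus of a sfGFP-mCherry timer. Cells are FACS-sorted into 8 mCherry/sfGFP bins and deep-sequenced. PSI runs from 0 (unstable) to 1 (stable). Backgrounds are wild type, das1Δ and doa10Δ at 30 °C, and wild type, das1Δ, cdc34-1 and cdc53-1 at 37 °C; 2-3 technical replicates each.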

Saccharomyces cerevisiae [2] = assay: as above; conditions: genetic background: wild type; temperature: 30 C
[3] = genetic background: cdc34-1, temperature: 37 C
[4] = genetic background: cdc53-1, temperature: 37 C
[5] = genetic background: das1 deletion, temperature: 30 C
[6] = genetic background: das1 deletion, temperature: 37 C
[7] = genetic background: doa10 deletion, temperature: 30 C
[8] = genetic background: wild type, temperature: 30 C
[9] = genetic background: wild type, temperature: 37 C
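Note: PSI is a weighted mean of sequencing reads over stability bins, variants kept only with over 10 reads, mCherry proximal and sfGFP distal, peptide attached via GGGS linker.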

Sequence | protein stability index (Saccharomyces cerevisiae [1]; [3]) | protein stability index (Saccharomyces cerevisiae [1]; [4]) | protein stability index (Saccharomyces cerevisiae [1]; [5]) | protein stability index (Saccharomyces cerevisiae [1]; [6]) | protein stability index (Saccharomyces cerevisiae [1]; [7]) | protein stability index (Saccharomyces cerevisiae [1]; [8]) | protein stability index (Saccharomyces cerevisiae [1]; [9]) | protein stability index (Saccharomyces cerevisiae [2])
GKVGGRMWVWRV | 0.592 ± 0.041 | 0.73 ± 0.015 | 0.63 ± 0.013 | 0.72579 ± 0.00022 | 0.116 ± 0.014 | 0.129 ± 0.019 | 0.2406 ± 0.0022 | 0.257 ± 0.0031
GLGVIFFLLGYG | 0.469 ± 0.028 | 0.507 ± 0.023 | 0.336 ± 0.033 | 0.5631 ± 0.0018 | 0.292 ± 0.019 | 0.327 ± 0.016 | 0.551 ± 0.051 | 0.429 ± 0.015
GLLFWSGVVSWV | 0.2627 ± 0.0023 | 0.388 ± 0.058 | 0.243 ± 0.038 | 0.507 ± 0.0027 | 0.225 ± 0.0065 | 0.263 ± 0.038 | 0.504 ± 0.014 | 0.4 ± 0.0088
GLLVFRCINLRC | 0.449 ± 0.013 | 0.47 ± 0.0085 | 0.429 ± 0.045 | 0.5558 ± 0.005 | 0.421 ± 0.021 | 0.357 ± 0.03 | 0.471 ± 0.017 | 0.357 ± 0.038
GLPGYAWGRSGG | 0.6759 ± 0.0045 | 0.788 ± 0.02 | 0.743 ± 0.037 | 0.782 ± 0.012 | 0.776 ± 0.037 | 0.775 ± 0.029 | 0.7221 ± 0.0024 | 0.586 ± 0.22
GLSLVCWIVVLG | 0.153 ± 0.033 | 0.202 ± 0.066 | 0.189 ± 0.037 | 0.347 ± 0.017 | 0.1899 ± 0.0016 | 0.178 ± 0.032 | 0.318 ± 0.0055 | 0.306 ± 0.014
GLVVMFVIAGGG | 0.405 ± 0.0067 | 0.459 ± 0.008 | 0.284 ± 0.05 | 0.5057 ± 0.00061 | 0.2577 ± 0.0014 | 0.299 ± 0.034 | 0.464 ± 0.015 | 0.404 ± 0.015
GMGRVLVEVLLC | 0.293 ± 0.0086 | 0.451 ± 0.036 | 0.317 ± 0.033 | 0.5187 ± 0.0023 | 0.0999 ± 0.0047 | 0.101 ± 0.021 | 0.0812 ± 0.017 | 0.165 ± 0.029
GMLIYVIGGLSH | 0.652 ± 0.016 | 0.652 ± 0.04 | 0.435 ± 0.027 | 0.667 ± 0.017 | 0.438 ± 0.011 | 0.4464 ± 0.0034 | 0.626 ± 0.019 | 0.508 ± 0.06
GMMLLRFIIRWY | 0.0773 ± 0.026 | 0.15 ± 0.027 | 0.141 ± 0.04 | 0.268 ± 0.0083 | 0.138 ± 0.0027 | 0.134 ± 0.03 | 0.212 ± 0.0061 | 0.173 ± 0.045
GPFVRSALIFIF | 0.535 ± 0.04 | 0.582 ± 0.045 | 0.467 ± 0.021 | 0.603 ± 0.034 | 0.304 ± 0.0055 | 0.343 ± 0.026 | 0.547 ± 0.022 | 0.407 ± 0.018
GRAVGLANFTIK | 0.659 ± 0.02 | 0.756 ± 0.033 | 0.641 ± 0.026 | 0.735 ± 0.015 | 0.65 ± 0.044 | 0.68 ± 0.042 | 0.7006 ± 0.0042 | 0.129 ± 0.012
GRCGGPRSLGVG | 0.562 ± 0.036 | 0.589 ± 0.022 | 0.52 ± 0.022 | 0.5989 ± 0.001 | 0.5493 ± 0.0022 | 0.538 ± 0.012 | 0.5853 ± 0.0057 | 0.547 ± 0.07
GSGCLFNRWRIL | 0.6956 ± 0.0048 | 0.7303 ± 0.0059 | 0.6487 ± 0.0063 | 0.733 ± 0.022 | 0.169 ± 0.034 | 0.196 ± 0.027 | 0.46 ± 0.0074 | 0.287 ± 0.045
GSLLWSGWSTCY | 0.768 ± 0.018 | 0.811 ± 0.011 | 0.698 ± 0.058 | 0.826 ± 0.0092 | 0.6696 ± 0.0058 | 0.693 ± 0.022 | 0.763 ± 0.0077 | 0.761 ± 0.043
GSWGGGWRYVGW | 0.761 ± 0.037 | 0.792 ± 0.016 | 0.663 ± 0.012 | 0.7947 ± 0.0036 | 0.664 ± 0.037 | 0.685 ± 0.023 | 0.759 ± 0.011 | 0.734 ± 0.033
GTSDLIALLMLT | 0.688 ± 0.047 | 0.7275 ± 0.0021 | 0.607 ± 0.011 | 0.7058 ± 0.0013 | 0.361 ± 0.026 | 0.403 ± 0.045 | 0.601 ± 0.007 | 0.509 ± 0.083
GTWCLAMARFCA | 0.615 ± 0.056 | 0.755 ± 0.016 | 0.662 ± 0.026 | 0.762 ± 0.047 | 0.351 ± 0.025 | 0.375 ± 0.025 | 0.606 ± 0.039 | 0.4775 ± 0.0038
GVFVVVGEASVH | 0.546 ± 0.0025 | 0.5995 ± 0.0049 | 0.402 ± 0.023 | 0.574 ± 0.0029 | 0.389 ± 0.021 | 0.406 ± 0.017 | 0.564 ± 0.011 | 0.421 ± 0.023
